{
  "source": "paper doi:10.1101/2021.12.16.472979v1",
  "proteins": {"B1": {"name": "Efm_TyrDC (Enterococcus faecium) (protein)", "chain": "MKDMDIKAVFIGDKAENGPVYKMLLNKMVDEHLGWRENYIPSDMPAISEGDKLTPDYLATRDHMIEVLDEVSQRLRAGSIPWHSAGRYWGQMNAETLMPALLAYNYAMLWNPNNVALESSMATSQMEAEVGQDFASLFNMADGWGHIAADGSIANLEGLWYARCIKSIPLAVKEVLPEKVKNMSEWALLNLSVEEILEMTESFTDEEMDEVKAASSRSGKNIQKLGKWLVPQTKHYSWMKALDICGVGLDQMVAIPVQEDYRMDINALEKTIRELADQKIPILGVVAVVGTTEEGQVDSVDKIIQLREKLKDEGIYFYLHVDAAYGGYARSLFLNEAGEFVPYASLAEFFEEHHVFHHYVTIDKEVYEGFRAISEADSVTIDPHKMGYVPYAAGGIVIKHKNMRNIISYFAPYVFEKSVKAPDMLGAYILEGSKAGATAAAVWTAHRVLPLNVTGYGQLIGASIEAAQRFREFLEQLHFTVKGKTIEVYPLNHPDFNMVNWVFKVQDCTDLNAINELNEKMFDRSSYMDGDVYGERFITSHTTFTQEDYGDSPIRFIERMGLSKEEWQKEQQITLLRAAIMTPYLNDDRIFNFYTKEIAKAMEKKLNEIIK"}},
  "substrate": "N[C@@H](Cc1ccccc1)C(=O)O",
  "assay": "LC-MS decarboxylation assay, Michaelis-Menten fit",
  "type": "biochemical, Enterococcus faecium",
  "conditions": "100 μM PLP, 200 mM sodium acetate pH 5.5, 100 nM enzyme, 37 °C",
  "data": [
    {"protein": "B1", "values": [
      {"measurement": "Km", "result": 8.5, "unit": "mM"}
    ]}
  ]
}
